Test results taken from patent US20230183352A1 (published 2023).
Where a chain is given by its changes, count along the chain named. Each block holds one binder with its values, some of them ahead of it.

What was measured:
[1] = target: T1, PD-L1 Protein, Cynomolgus, Recombinant (His Tag) (cynomolgus, UniProt G7PSE7 19-239); assay: SPR, Biacore T200, antibody captured
T1 construct: Bought protein; also called QPP10.1; cynoPD-L1; not shown: His tag

[2] = target: T2, Biotin QP004.3 (biotin-PDL1-FC) (human, UniProt Q9NZQ7 19-238, limits assumed, biotinylated (sites not given)); assay: PD-L1 binding ELISA, antibody coated, biotin-PDL1-FC titrated
[3] = target: T3, PD-L1 Protein, Human, Recombinant (His Tag) (human, UniProt Q9NZQ7 19-239); assay: SPR Biacore T200, antibody captured, PD-L1 His as analyte, 1:1 binding
T3 construct: Bought protein; also called QPP09.1; SinoBiologic 10084-H08H

[4] = target: T4, PD-L1 Protein, Cynomolgus, Recombinant (His Tag) (cynomolgus); assay: as above
T4 construct: Bought protein; also called QPP10.1; SinoBiologic 90251-C08H

[5] = target: T2, Biotin QP004.3 (biotin-PDL1-FC); assay: PD-L1/PD-1 blocking ELISA, PD1-FC coated; row labelled EC50; competitor PD1-FC
[6] = target: T5, Claudin 18.2 (CLDN18.2), expressed on CHOS-CLDN 18.2 / HEK293-CLDN 18.2 / HCC827-CLDN 18.2 cells (human, UniProt P56856-2 1-261); assay: FACS, CHOS-CLDN18.2 cells
T5 construct: whole, on cells; The species is not repeated for the CHOS-CLDN 18.2 cells; also called claudin-18A2

[7] = target: T5, Claudin 18.2 (CLDN18.2), expressed on …; assay: FACS, CHOS-CLDN18.2 cells, 5 µg/ml
[8] = target: T5, Claudin 18.2 (CLDN18.2), expressed on …; assay: FACS, CHOS-CLDN18.2 cells, 20 µg/ml
[9] = target: T5, Claudin 18.2 (CLDN18.2), expressed on …; assay: FACS, CHOS-CLDN18.2 cells, 10 µg/ml
[10] = target: T5, Claudin 18.2 (CLDN18.2), expressed on …; assay: FACS, CHOS-CLDN18.2 cells, 0.005 µg/ml
[11] = target: T5, Claudin 18.2 (CLDN18.2), expressed on …; assay: FACS, CHOS-CLDN18.2 cells, 0.020 µg/ml
[12] = target: T5, Claudin 18.2 (CLDN18.2), expressed on …; assay: FACS, CHOS-CLDN18.2 cells, 0.078 µg/ml
[13] = target: T5, Claudin 18.2 (CLDN18.2), expressed on …; assay: FACS, CHOS-CLDN18.2 cells, 0.313 µg/ml
[14] = target: T5, Claudin 18.2 (CLDN18.2), expressed on …; assay: FACS, CHOS-CLDN18.2 cells, 1.250 µg/ml
[15] = target: T5, Claudin 18.2 (CLDN18.2), expressed on …; assay: FACS, CHOS-CLDN18.2 cells, 0 µg/ml (background)
[16] = target: T5, Claudin 18.2 (CLDN18.2), expressed on …; assay: FACS, MFI on CHOS-CLDN18.2 over MFI on CHOS-CLDN18.1, 10 µg/ml
[17] = target: T5, Claudin 18.2 (CLDN18.2), expressed on …; assay: cell-based or functional assay

T3 sequence (Q9NZQ7 19-239 limits assumed): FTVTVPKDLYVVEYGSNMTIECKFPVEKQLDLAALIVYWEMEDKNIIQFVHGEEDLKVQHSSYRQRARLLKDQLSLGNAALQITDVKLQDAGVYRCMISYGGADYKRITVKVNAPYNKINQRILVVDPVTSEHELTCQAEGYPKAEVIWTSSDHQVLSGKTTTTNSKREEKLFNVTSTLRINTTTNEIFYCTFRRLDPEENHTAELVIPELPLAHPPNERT
T1 sequence (G7PSE7 entry or part of it): as the sequence (Q9NZQ7 19-239 limits assumed) above, with A33T, A34S, S62N, R68Q, Q82R, F173L, T185A, T192I, H215L counted along it
T2 sequence (Q9NZQ7 19-238 limits assumed): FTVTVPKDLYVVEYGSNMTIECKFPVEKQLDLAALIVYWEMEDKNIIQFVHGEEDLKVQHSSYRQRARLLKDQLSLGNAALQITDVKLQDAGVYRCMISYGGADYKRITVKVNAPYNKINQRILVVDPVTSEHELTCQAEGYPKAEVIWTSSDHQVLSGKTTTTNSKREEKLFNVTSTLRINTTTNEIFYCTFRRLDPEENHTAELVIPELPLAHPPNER

B1: QP322 (Fc fusion)
chain: EVQLLESGGGLVQPGGSLRLSCAASGFTYGTYAMSWFRQAPGKGREGVACIDIYGRASYTDPVKGRFTISQDNSKNTLYLQMNSLKAEDTAVYYCAARDFGYCTASWVHEGFSRYWGQGTLVTVSS
notes: Humanized from QP1162; also called 1162-V3; humanized nanobody QP322; not shown: human IgG1-FC constant region fused to the C terminal of the VHH
- binding result [1]: binds

B2: QP322 (Fc fusion)
chain: B1 chain
notes: Humanization design of QP1162; VHH at the N-terminal of FC; also called 1162-V3; QD322; not shown: human IgG1-FC constant region fused to the C terminal of the VHH
- EC50 [2]: 0.00753 µg/mL
- Kd [3]: 2.37 nM
- koff [3]: 0.00311 s⁻¹
- kon [3]: 1.31e+06 M⁻¹ s⁻¹
- Kd [4]: 5.39 nM
- koff [4]: 0.00354 s⁻¹
- kon [4]: 657000 M⁻¹ s⁻¹
- IC50 [5]: 5.12 nM

B5: QP14371435 (antibody, human IgG1, kappa, V domains shown)
VH: EVQLVESGGGLVKPGGSLRLSCAASGFTFSNYAMSWVRQAPGKGLEWVASIISGGRTYYLDSEKGRFTISRDNAKNSLYLQMNSLRAEDTAVYYCTRIYYGNSFDYWGQGTLVTVSS
VL: DIVMTQSPDSLAVSLGERATISCKSSQSLLNSGNQKNYLTWYQQKPGQPPKLLIYWASTRESGVPDRFTGSGSGTDFTLTISSLQAEDVAVYYCQNDYSYPFTFGQGTKLEIKR
notes: Humanized from QP190191
- EC50 [6]: 0.38 µg/mL
- max [6]: 197000
- FACS reading [7]: 197000
- FACS reading [8]: 134000
- MFI [9]: 512000
- FACS reading [10]: 4130
- FACS reading [11]: 10200
- FACS reading [12]: 18000
- FACS reading [13]: 72000
- FACS reading [14]: 145000
- FACS reading [15]: 732
- CLDN18.2/CLDN18.1 (MFI ratio) [16]: 497

B8: QP190191 (antibody, human IgG1, V domains shown)
VH: EVKLVESGGGLVKPGGSLKLSCAASGFTFSNYAMSWVRQTPEKRLEWVASIISGGRTYYLDSEKGRFTISRDNARNNLYLQMSSLRSEDTAMYYCTRIYYGNSFDYWGQGTTLTVSS
VL: DIVMTQSPSSQTVTAGEKVTMSCKSSQSLLNSGNQKNYLTWYQQKPGQPPKLLIYWASTRESGVPDRFTGSGSGTDFTLTISNMQAEDLAVYYCQNDYSYPFTFGSGTKLEIK
notes: Chimeric; also called 36A2; mouse-derived chimeric antibody QP190191
- EC50 [6]: 0.354 µg/mL
- max [6]: 148000
- FACS reading [7]: 148000
- FACS reading [8]: 88700
- MFI [9]: 450000
- FACS reading [10]: 2840
- FACS reading [11]: 8000
- FACS reading [12]: 15700
- FACS reading [13]: 54200
- FACS reading [14]: 114000
- FACS reading [15]: 729
- CLDN18.2/CLDN18.1 (MFI ratio) [16]: 423

Further lines, with some results ahead:

- binding result [1]: binds
B3: QP325 (Fc fusion)
chain: B1 chain with R45L, A57T, K86R
notes: Humanized from QP1166; also called 1166-V3; humanized antibody QP325; not shown: human IgG1-FC constant region fused to the C terminal of the VHH

- binding result [1]: binds
B4: QP1162 (VHH)
VHH: B1 chain with E1Q, L5V, L11S, P14S, G44E, S74A, A87P, V92M, L121Q
notes: also called nanobody QP1162; camel nanobody QP1162

- EC50 [6]: 0.466 µg/mL
- max [6]: 182000
- FACS reading [7]: 182000
- FACS reading [8]: 183000
- MFI [9]: 504000
- FACS reading [10]: 3390
- FACS reading [11]: 8520
- FACS reading [12]: 23600
- FACS reading [13]: 75900
- FACS reading [14]: 141000
- FACS reading [15]: 713
- CLDN18.2/CLDN18.1 (MFI ratio) [16]: 550
B6: QP14361435 (antibody, human IgG1, kappa, V domains shown)
VH: B5 VH with A49S
VL: B5 VL
notes: Humanized from QP190191

- EC50 [6]: 0.36 µg/mL
- max [6]: 174000
- FACS reading [7]: 174000
- FACS reading [8]: 115000
- MFI [9]: 433000
- FACS reading [10]: 3730
- FACS reading [11]: 10800
- FACS reading [12]: 17700
- FACS reading [13]: 65900
- FACS reading [14]: 133000
- FACS reading [15]: 754
- CLDN18.2/CLDN18.1 (MFI ratio) [16]: 448
B7: QP14371433 (antibody, human IgG1, kappa, V domains shown)
VH: B5 VH
VL: B5 VL with S22N, T69S
notes: Humanized from QP190191; also called QP14331437
- EC50 of killing, ADCC (PBMC, HEK293-CLDN18.2 cells) [17]: 0.0162 µg/mL
- Killing percentage, ADCC (PBMC, HEK293-CLDN18.2 cells), 0 µg/ml [17]: 9.02%
- Killing percentage, ADCC (PBMC, HEK293-CLDN18.2 cells), 0.0001024 µg/ml [17]: 8.31%
- Killing percentage, ADCC (PBMC, HEK293-CLDN18.2 cells), 0.000512 µg/ml [17]: 10.5%
- Killing percentage, ADCC (PBMC, HEK293-CLDN18.2 cells), 0.00256 µg/ml [17]: 13.3%
- Killing percentage, ADCC (PBMC, HEK293-CLDN18.2 cells), 0.0128 µg/ml [17]: 31.3%
- Killing percentage, ADCC (PBMC, HEK293-CLDN18.2 cells), 0.064 µg/ml [17]: 41.5%
- Killing percentage, ADCC (PBMC, HEK293-CLDN18.2 cells), 0.32 µg/ml [17]: 49.6%
- Killing percentage, ADCC (PBMC, HEK293-CLDN18.2 cells), 1.6 µg/ml [17]: 56.4%
- Killing percentage, ADCC (PBMC, HEK293-CLDN18.2 cells), 8 µg/ml [17]: 53.8%
- Killing percentage, ADCC (PBMC, HEK293-CLDN18.2 cells), 40 µg/ml [17]: 52.3%
